Test results from patent US20100292104A1 (LAWRENCE LIVERMORE NATIONAL SECURITY, published 2010).

Target: Maltose Binding Protein (MBP)-N-intein fusion protein (Synechocystis sp. PCC6803, UniProt P74750 771-897)
Assay: cell-based or functional assay

trans-splicing activity relative to the non-photocaged C-intein polypeptide [%]	Binder
10	DnaE C-intein polypeptide photocaged at Gly31 (Gly31 backbone amide caged with nitroveratryl (1,2-dimethoxy-4-methyl-3-nitro-benzyl) group; C-terminal PEGylated thiol linker; Cys37 protected as S-tBu during synthesis) peptide: not shown
~30	DnaE C-intein polypeptide photocaged at Gly19 (Gly19 backbone amide caged with nitroveratryl (1,2-dimethoxy-4-methyl-3-nitro-benzyl) group; C-terminal PEGylated thiol linker; Cys37 protected as S-tBu during synthesis) peptide: not shown
~30	DnaE C-intein polypeptide photocaged at Gly6 (Gly6 backbone amide caged with nitroveratryl (1,2-dimethoxy-4-methyl-3-nitro-benzyl) group; C-terminal PEGylated thiol linker; Cys37 protected as S-tBu during synthesis) peptide: not shown
~60	DnaE C-intein polypeptide photocaged at Gly11 (Gly11 backbone amide caged with nitroveratryl (1,2-dimethoxy-4-methyl-3-nitro-benzyl) group; C-terminal PEGylated thiol linker; Cys37 protected as S-tBu during synthesis) peptide: not shown
